Source: patent US20240368267A1 (KODIAK SCIENCES, published 2024)
Positions count from the first letter of the chain named. Numbers in names are those of the source. Blank lines part the entries; values can stand above or below the binder they belong to.

Key:
recombinant human IL-6 [1] = target: T1, recombinant human IL-6 (human, UniProt P05231 30-212); test: Biacore, Fab lysate over IL-6 chip, 25 C
T1 construct: bought protein; also called interleukin-6
Method: Fab libraries were constructed containing random single point mutations for all 71 CDR positions, excluding substitutions for Cys, Met and Asn due to the chemical liabilities associated with these amino acids. Small-scale expression in 96 well plates format was utilized for screening the Fab libraries. E. coli colonies (TG1 cells, Zymo Research) containing randomized single point mutations were picked into 96 well plates (1.5 mL) and grown overnight at 30° C. in LB Amp+2% glucose. A separate 96 well plate was created on the following day by removing 100 μL of culture and adding 100 μL of 30% glycerol, then stored at −80° C. The remaining culture was spun down for 20 min and later resuspended in 1.5 mL of LB Amp containing 1 mM IPTG for induction of protein expression at 30° C. After 5 hours, cells were spun down, resuspended in 500 μL of HBS-EP+ buffer and lysed by one freeze/thaw cycle. Lysates were centrifuged for 30 minutes and vacuum filtered (200 μL) into round bottom 96 well plates for Biacore analysis.
Three ranges of antigen density (100-150 RU, 300-400 RU, 400-600 RU) were obtained by using variable flow times for each chip channel, later blocked with ethanolamine. Supernatants of the 96-well filtered culture lysates were injected at […] for 120 seconds. Fitting of dissociation curves (300 seconds) to single exponential decay curve was used for the determination of dissociation rates (koff). Chip surfaces were regenerated with 10 mM Glycine pH 1.7 solution injected at 50 μL/min during 60 seconds after every cycle of sample binding and dissociation.

human IL-6 [2] = target: T2, human IL-6 (human, UniProt P05231 30-212); test: SPR (Biacore T200), antibody from cell supernatant captured on Protein A, IL-6 flowed over, 37 C
T2 construct: also called interleukin-6
T2 sequence (P05231 30-212 limits assumed): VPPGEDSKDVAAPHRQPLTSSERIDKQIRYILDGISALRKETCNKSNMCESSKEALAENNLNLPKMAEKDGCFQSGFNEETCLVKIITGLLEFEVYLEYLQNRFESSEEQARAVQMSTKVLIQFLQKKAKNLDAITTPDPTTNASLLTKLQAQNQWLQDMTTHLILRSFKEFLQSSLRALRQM
Method: Those four positions were selected based on their tolerance for mutations as observed in bacterial and mammalian screens. […] These cultures were centrifuged and supernatants containing secreted antibodies were harvested and diluted in HBS-EP+ running buffer (1:20 ratio).
(§1) Antibodies were captured on a Protein A chip (GE) by injecting 1:20 cell supernatant dilutions at 10 μL/min for 60 seconds. […] The sensor chip was regenerated by a 60 seconds injection of 10 mM Glycine pH 1.7 at the flow rate of […]. […] For this setup, 1 μg/mL of purified antibody was injected over a Protein A chip at 10 μL/min for 25 seconds. […] The sensor chip was regenerated by a 60 seconds injection of 10 mM Glycine pH 1.7 at flow rate of 50 μL/min. Data analysis for supernatant and purified samples were performed using BIAevaluation software (GE). All sensorgrams were double reference subtracted and fit using a 1:1 Langmuir binding model.

human IL-6 [3] = target: T2, human IL-6; test: SPR (Biacore T200), purified antibody captured on Protein A, IL-6 flowed over, 37 C
Method: as §1

recombinant human IL-6 [4] = target: T1, recombinant human IL-6; test: Biacore, antibody captured on Protein A, IL-6 as analyte
Method: as §1

T1 sequence (P05231 30-212 limits assumed): as above

B1: anti-IL-6 Fab, heavy chain A105K (Fab, V domains shown)
VH: EVQLVESGGGLVQPGGSLRLSCAASGFTFSPFAMSWVRQAPGKGLEWVAKISPGGSWTYYSDTVTGRFTFSLDTSKSTAYLQMNSLRAEDTAVYYCARQLWGYYKLDIWGQGTLVTVSS
VL: DIQLTQSPSSLSASVGDRVTITCSASISVSYMYWYQQKPGKAPKLLIYDMSNLASGVPSRFSGSGSGTDFTLTISSLQPEDFATYYCMQWSGYPYTFGQGTKVEIK
notes: built as m22 plus the named change
- koff (recombinant human IL-6 [1]): 0.00401 s⁻¹

B2: anti-IL-6 antibody, heavy chain G66D / light chain WT (antibody, human IgG1, V domains shown)
VH: B1 VH with G66D, K105A
VL: B1 VL
notes: Derived as m2; Engineered human IgG1
- Kd (human IL-6 [2]): 0.215 nM
- koff (human IL-6 [2]): 0.000392 s⁻¹
- kon (human IL-6 [2]): 1.83e+06 M⁻¹ s⁻¹
- Kd (human IL-6 [3]): 0.113 nM
- koff (human IL-6 [3]): 0.000178 s⁻¹
- kon (human IL-6 [3]): 1.57e+06 M⁻¹ s⁻¹

B3: anti-IL-6 antibody, heavy chain variant I (M34I/G66D/I108V), light chain variant V (M32L/M50D/M88Q) (antibody, human IgG1, V domains shown)
VH: B1 VH with M34I, G66D, K105A, I108V
VL: B1 VL with M32L, M50D, M88Q
notes: engineered human IgG1; also called I/V
- binding result (recombinant human IL-6 [4]): binds

B4: anti-IL-6 antibody, heavy chain variant II (M34W/G66D/I108V), light chain variant V (M32L/M50D/M88Q) (antibody, human IgG1, V domains shown)
VH: B1 VH with M34W, G66D, K105A, I108V
VL: B1 VL with M32L, M50D, M88Q
notes: engineered human IgG1; also called II/V
- binding result (recombinant human IL-6 [4]): binds

B5: anti-IL-6 Fab, light chain S55T (Fab, V domains shown)
VH: B1 VH with K105A
VL: B1 VL with S55T
notes: as for B1
- koff (recombinant human IL-6 [1]): 0.0052 s⁻¹

B10: anti-IL-6 antibody, heavy chain variant II (M34W/G66D/I108V), light chain variant IV (M32L/M50A/N52S/M88Q) (antibody, human IgG1, V domains shown)
VH: B1 VH with M34W, G66D, K105A, I108V
VL: B1 VL with M32L, M50A, N52S, M88Q
notes: engineered human IgG1; also called II/IV
- binding result (recombinant human IL-6 [4]): binds

B11: anti-IL-6 antibody, heavy chain T65Q, G66D / light chain WT (antibody, human IgG1, V domains shown)
VH: B1 VH with T65Q, G66D, K105A
VL: B1 VL
notes: as for B2
- Kd (human IL-6 [2]): 0.158 nM
- koff (human IL-6 [2]): 0.000517 s⁻¹
- kon (human IL-6 [2]): 3.28e+06 M⁻¹ s⁻¹
- Kd (human IL-6 [3]): 0.148 nM
- koff (human IL-6 [3]): 0.000262 s⁻¹
- kon (human IL-6 [3]): 1.77e+06 M⁻¹ s⁻¹

B12: anti-IL-6 antibody, heavy chain T63K, G66D / light chain WT (antibody, human IgG1, V domains shown)
VH: B1 VH with T63K, G66D, K105A
VL: B1 VL
notes: as for B2
- Kd (human IL-6 [2]): 0.185 nM
- koff (human IL-6 [2]): 0.000461 s⁻¹
- kon (human IL-6 [2]): 2.49e+06 M⁻¹ s⁻¹
- Kd (human IL-6 [3]): 0.161 nM
- koff (human IL-6 [3]): 0.000235 s⁻¹
- kon (human IL-6 [3]): 1.46e+06 M⁻¹ s⁻¹

B14: anti-IL-6 Fab, heavy chain A105Q (Fab, V domains shown)
VH: B1 VH with K105Q
VL: B1 VL
notes: as for B1
- koff (recombinant human IL-6 [1]): 0.00378 s⁻¹

B15: anti-IL-6 antibody, heavy chain variant I (M34I/G66D/I108V), light chain variant III (M32L/M50D/N52S/M88Q) (antibody, human IgG1, V domains shown)
VH: B1 VH with M34I, G66D, K105A, I108V
VL: B1 VL with M32L, M50D, N52S, M88Q
notes: engineered human IgG1; also called I/III
- binding result (recombinant human IL-6 [4]): binds

B17: anti-IL-6 Fab, heavy chain S30V (Fab, V domains shown)
VH: B1 VH with S30V, K105A
VL: B1 VL
notes: as for B1
- koff (recombinant human IL-6 [1]): 0.00352 s⁻¹

B19: anti-IL-6 Fab, heavy chain L100Q (Fab, V domains shown)
VH: B1 VH with L100Q, K105A
VL: B1 VL
notes: as for B1
- koff (recombinant human IL-6 [1]): 0.00245 s⁻¹

B21: anti-IL-6 antibody, heavy chain WT / light chain WT (antibody, human IgG1, V domains shown)
VH: B1 VH with K105A
VL: B1 VL
notes: Full antibody on an engineered human IgG1 framework, Fc with L234A, L235A, G237A and L443C (EU numbering), expressed in Expi293 cells; also called wild-type; parent molecule
- Kd (human IL-6 [2]): 0.381 nM
- koff (human IL-6 [2]): 0.000255 s⁻¹
- kon (human IL-6 [2]): 670000 M⁻¹ s⁻¹
- Kd (human IL-6 [3]): 0.226 nM
- koff (human IL-6 [3]): 0.000128 s⁻¹
- kon (human IL-6 [3]): 565000 M⁻¹ s⁻¹

B24: anti-IL-6 Fab, heavy chain S30G (Fab, V domains shown)
VH: B1 VH with S30G, K105A
VL: B1 VL
notes: as for B1
- koff (recombinant human IL-6 [1]): 0.00977 s⁻¹

B26: anti-IL-6 Fab, heavy chain S30W (Fab, V domains shown)
VH: B1 VH with S30W, K105A
VL: B1 VL
notes: as for B1
- koff (recombinant human IL-6 [1]): 0.00869 s⁻¹

Now from value to binder:

- Kd (human IL-6 [2]): 0.203 nM
- koff (human IL-6 [2]): 0.000408 s⁻¹
- kon (human IL-6 [2]): 2.01e+06 M⁻¹ s⁻¹
- Kd (human IL-6 [3]): 0.193 nM
- koff (human IL-6 [3]): 0.000251 s⁻¹
- kon (human IL-6 [3]): 1.3e+06 M⁻¹ s⁻¹
B6: anti-IL-6 antibody, heavy chain T63Q, G66D / light chain WT (antibody, human IgG1, V domains shown)
VH: B1 VH with T63Q, G66D, K105A
VL: B1 VL
notes: as for B2

- Kd (human IL-6 [2]): 0.178 nM
- koff (human IL-6 [2]): 0.000464 s⁻¹
- kon (human IL-6 [2]): 2.61e+06 M⁻¹ s⁻¹
- Kd (human IL-6 [3]): 0.147 nM
- koff (human IL-6 [3]): 0.000252 s⁻¹
- kon (human IL-6 [3]): 1.72e+06 M⁻¹ s⁻¹
B7: anti-IL-6 antibody, heavy chain T63E, G66D / light chain WT (antibody, human IgG1, V domains shown)
VH: B1 VH with T63E, G66D, K105A
VL: B1 VL
notes: as for B2

- koff (recombinant human IL-6 [1]): 0.00943 s⁻¹
B8: anti-IL-6 Fab, light chain V29L (Fab, V domains shown)
VH: B1 VH with K105A
VL: B1 VL with V29L
notes: as for B1

- koff (recombinant human IL-6 [1]): 0.00529 s⁻¹
B9: anti-IL-6 Fab, light chain A54Y (Fab, V domains shown)
VH: B1 VH with K105A
VL: B1 VL with A54Y
notes: as for B1

- binding result (recombinant human IL-6 [4]): binds
B13: anti-IL-6 antibody, heavy chain variant II (M34W/G66D/I108V), light chain variant III (M32L/M50D/N52S/M88Q) (antibody, human IgG1, V domains shown)
VH: B1 VH with M34W, G66D, K105A, I108V
VL: B1 VL with M32L, M50D, N52S, M88Q
notes: engineered human IgG1; also called II/III

- Kd (human IL-6 [2]): 0.136 nM
- koff (human IL-6 [2]): 0.000397 s⁻¹
- kon (human IL-6 [2]): 2.92e+06 M⁻¹ s⁻¹
- Kd (human IL-6 [3]): 0.105 nM
- koff (human IL-6 [3]): 0.000185 s⁻¹
- kon (human IL-6 [3]): 1.77e+06 M⁻¹ s⁻¹
B16: anti-IL-6 antibody, heavy chain S35H, G66D / light chain WT (antibody, human IgG1, V domains shown)
VH: B1 VH with S35H, G66D, K105A
VL: B1 VL
notes: as for B2

- koff (recombinant human IL-6 [1]): 0.005 s⁻¹
B18: anti-IL-6 Fab, light chain S55I (Fab, V domains shown)
VH: B1 VH with K105A
VL: B1 VL with S55I
notes: as for B1

- binding result (recombinant human IL-6 [4]): binds
B20: anti-IL-6 antibody, heavy chain variant I (M34I/G66D/I108V), light chain variant IV (M32L/M50A/N52S/M88Q) (antibody, human IgG1, V domains shown)
VH: B1 VH with M34I, G66D, K105A, I108V
VL: B1 VL with M32L, M50A, N52S, M88Q
notes: engineered human IgG1; also called I/IV

- Kd (human IL-6 [2]): 0.224 nM
- koff (human IL-6 [2]): 0.000361 s⁻¹
- kon (human IL-6 [2]): 1.61e+06 M⁻¹ s⁻¹
B22: anti-IL-6 antibody, heavy chain T65Y, G66D / light chain WT (antibody, human IgG1, V domains shown)
VH: B1 VH with T65Y, G66D, K105A
VL: B1 VL
notes: as for B2

- koff (recombinant human IL-6 [1]): 0.00503 s⁻¹
B23: anti-IL-6 Fab, heavy chain Y103D (Fab, V domains shown)
VH: B1 VH with Y103D, K105A
VL: B1 VL
notes: as for B1

- koff (recombinant human IL-6 [1]): 0.00385 s⁻¹
B25: anti-IL-6 Fab, heavy chain Q99A (Fab, V domains shown)
VH: B1 VH with Q99A, K105A
VL: B1 VL
notes: as for B1
